Measured values: patent US8299028B2, “Chimeric peptide antagonist for GPCR135 or GPCR142” (Janssen Pharmaceutica NV, priority 2007, dated 2012)

Legend:
human GPCR135 [1] = target: T1, human GPCR135 (Homo sapiens, UniProt Q9NSD7); assay: Agonist assay, inhibition of forskolin-induced β-gal expression in SK-N-MC/CRE-β-gal cells; assay type: cell-based; parameters: expressed in transfected cells; conditions: human GPCR135 agonist response, mean ± SEM; NA = no agonist activity observed
T1 sequence (Q9NSD7 1-469): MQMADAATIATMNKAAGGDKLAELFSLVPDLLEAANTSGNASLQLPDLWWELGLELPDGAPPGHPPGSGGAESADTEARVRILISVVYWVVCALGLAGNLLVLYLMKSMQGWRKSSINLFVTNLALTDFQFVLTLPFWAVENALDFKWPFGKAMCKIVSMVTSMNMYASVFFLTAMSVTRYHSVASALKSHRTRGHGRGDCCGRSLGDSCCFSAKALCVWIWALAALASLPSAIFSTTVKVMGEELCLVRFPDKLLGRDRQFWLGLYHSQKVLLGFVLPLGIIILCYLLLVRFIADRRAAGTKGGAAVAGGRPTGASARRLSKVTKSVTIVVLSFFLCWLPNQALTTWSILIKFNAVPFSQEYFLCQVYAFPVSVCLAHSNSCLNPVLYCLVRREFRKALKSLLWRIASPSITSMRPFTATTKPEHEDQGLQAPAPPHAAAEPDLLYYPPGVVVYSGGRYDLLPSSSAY
Method: (§1) FIG. 1 provides a characterization of mutant relaxin-3 peptides as ligands for human GPCR135, GPCR142, and LGR7. The truncated peptides were tested for their GPCR135 and GPCR142 agonist activity using SK-N-MC/CRE-β-gal cells expressing either human GPCR135 (A) or GPCR142 (B). Agonists for GPCR135 or GPCR142 inhibit forskolin induced β-galactosidase (β-gal) expression. The LGR7 agonist activity of the truncated peptides was tested using SK-N-MC/CRE-β-gal cells expressing Gαs-linked human LGR7 (C). Human relaxin-3 was used as positive control in both cases. β-gal expression was measured by colorimetric assay using CPRG as the substrate and reading the absorbance at 570 nm.
(§2) All peptides were tested for their GPCR135, GPCR142, and LGR7 agonist activities in SK-N-MC/CRE cells expressing the relevant receptors as described by Liu et al., 2005b. […] An increase in cAMP concentration in these cells is associated with increased β-gal expression, which can be measured using Chlorophenol Red-β-D-Galactopyranoside (CRGP) as a substrate and reading the optical absorbance at 570 nm. […] The results were analyzed using GraphPad Prism 4.0 software. […] The agonism and antagonism of peptides for rat LGR7 was assayed using a cAMP luminescence assay. […] The cAMP in the cells was measured with a cAMP detection kit (DiscoveRx HitHunter, Cat. #90-0041) according to the manufacturer's protocol. […]

human GPCR142 = human GPCR142 (Homo sapiens, UniProt Q8TDU9); assay: as above; assay type: cell-based; parameters: expressed in transfected cells; conditions: human GPCR142 agonist response, mean ± SEM; NA = no agonist activity observed
Method: as §1, §2

human GPCR135 [2] = target: T1, human GPCR135; assay: Radioligand binding assay, 125I-R3/I5 tracer, COS-7 cells expressing GPCR135; parameters: expressed in transfected cells; host or cells: COS-7
Excerpt: COS-7 cells in 24-well tissue culture plates transiently expressing GPCR135, GPCR142 or LGR7 were used in radioligand binding assays as described by Liu et al., 2005a, J. Biol. Chem., 280:292-300. ^125I-Relaxin-3/INSL5 (^125I-R3/I5), a radiolabeled chimeric peptide with the human relaxin-3 B-chain and the human INSL5 A-chain (Liu et al., 2005b), was used at a final concentration of 50 pM as the tracer to characterize the binding properties of all truncated relaxin-3 peptides for GPCR135 and GPCR142. ^125I-relaxin-2 (PerkinElmer Biosciences, Boston) was used at a final concentration of 50 pM to characterize the binding properties of the truncated peptides for the relaxin receptor (LGR7). The results were analyzed by GraphPad Prism 4.0 software (Graphpad, San Diego). The IC50 values, which are the ligand concentrations that inhibited 50% of the maximum specific binding, were then calculated.

Sequence of human GPCR142 (Q8TDU9 whole entry): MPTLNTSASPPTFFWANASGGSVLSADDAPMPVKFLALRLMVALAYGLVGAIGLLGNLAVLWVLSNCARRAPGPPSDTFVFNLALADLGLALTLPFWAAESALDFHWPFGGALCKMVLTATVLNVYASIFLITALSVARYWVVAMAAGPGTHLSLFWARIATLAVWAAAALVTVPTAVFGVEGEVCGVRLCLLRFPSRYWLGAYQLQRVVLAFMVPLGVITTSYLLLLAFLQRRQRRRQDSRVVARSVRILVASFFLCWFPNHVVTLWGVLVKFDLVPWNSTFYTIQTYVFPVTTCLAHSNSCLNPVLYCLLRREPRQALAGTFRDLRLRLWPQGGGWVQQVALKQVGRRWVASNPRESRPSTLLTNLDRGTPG

**Q.** What does the source list for “R3(BΔ23-27)R: Relaxin-3 mutant: B-chain SEQ ID NO:15 (Gly23-Trp27 deleted plus C-terminal Arg), relaxin-3 A-chain SEQ ID NO:13”?
**A.** EC50 (human GPCR135 [1]): > 1000 nM; EC50 (human GPCR142): > 1000 nM; affinity of human GPCR135 (human GPCR135 [2]): high affinities
